From article PMC7340788, “Structure of the yeast Swi/Snf complex in a nucleosome free state” (Nature Communications, 2020)

T1: Swi1 (S. cerevisiae, UniProt P09547 1-1314)
T1 construct: Swi1, subunit of the S. cerevisiae Swi/Snf complex; endogenous protein; Only part of the chain is modelled (C-terminus with seven ARM repeats, α1, β1); For cryo-EM the complex was cross-linked with 1 mM BS3; source: endogenous, S. cerevisiae; purified as part of the Swi/Snf complex through Snf6-3Flag (ANTI-FLAG M2 resin, Superose 6)
T1 sequence (looked up): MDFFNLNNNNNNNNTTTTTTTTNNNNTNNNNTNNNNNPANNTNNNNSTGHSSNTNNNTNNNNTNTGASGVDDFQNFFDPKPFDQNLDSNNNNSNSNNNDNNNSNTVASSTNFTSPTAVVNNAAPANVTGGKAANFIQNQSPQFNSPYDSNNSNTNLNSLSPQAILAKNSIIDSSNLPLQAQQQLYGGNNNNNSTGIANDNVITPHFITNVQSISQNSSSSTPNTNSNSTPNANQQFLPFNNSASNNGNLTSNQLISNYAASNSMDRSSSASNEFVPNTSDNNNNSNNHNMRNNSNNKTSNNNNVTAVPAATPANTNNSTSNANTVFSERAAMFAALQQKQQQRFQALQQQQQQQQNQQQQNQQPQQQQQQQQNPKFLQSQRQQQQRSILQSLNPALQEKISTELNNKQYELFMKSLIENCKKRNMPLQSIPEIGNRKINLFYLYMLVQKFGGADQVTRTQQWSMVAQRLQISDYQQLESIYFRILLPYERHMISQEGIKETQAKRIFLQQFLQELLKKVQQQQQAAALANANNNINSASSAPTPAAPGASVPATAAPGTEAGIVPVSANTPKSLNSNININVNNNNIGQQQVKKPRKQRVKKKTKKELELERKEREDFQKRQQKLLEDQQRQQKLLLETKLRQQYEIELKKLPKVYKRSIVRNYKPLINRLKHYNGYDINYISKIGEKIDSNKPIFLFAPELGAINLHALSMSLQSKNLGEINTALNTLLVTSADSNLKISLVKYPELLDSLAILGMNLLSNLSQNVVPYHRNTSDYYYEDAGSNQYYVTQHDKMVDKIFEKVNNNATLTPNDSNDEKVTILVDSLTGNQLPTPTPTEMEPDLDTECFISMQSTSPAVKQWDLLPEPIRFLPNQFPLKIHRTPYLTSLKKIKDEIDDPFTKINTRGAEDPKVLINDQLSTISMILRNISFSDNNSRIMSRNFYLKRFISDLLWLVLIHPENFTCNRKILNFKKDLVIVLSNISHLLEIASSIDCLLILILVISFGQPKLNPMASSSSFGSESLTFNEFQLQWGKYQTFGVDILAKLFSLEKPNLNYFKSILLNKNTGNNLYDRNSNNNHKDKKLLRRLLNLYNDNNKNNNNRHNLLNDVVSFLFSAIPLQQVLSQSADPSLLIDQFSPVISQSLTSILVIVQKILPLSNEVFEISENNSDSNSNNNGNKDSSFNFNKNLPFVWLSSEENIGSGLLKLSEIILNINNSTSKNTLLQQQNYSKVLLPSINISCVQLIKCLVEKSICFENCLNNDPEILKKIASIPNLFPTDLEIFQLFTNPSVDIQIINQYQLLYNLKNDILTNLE

B1: Swp82 (natural protein, S. cerevisiae, UniProt P43554 1-623, looked up)
chain: MLGEDEGNTVLEKGNNPSVKQGEVGAVFIVPKILIREHERVILKQILQILDQDELVQPPLDKFPYKKLELPKYIDELKTRDATNTSYKMIQLDAYGEKKVGSNGELFGGRHYLFNTFTFTAHMGVLLVLLQDVIKVLYQSNATHDEDEFIVQHDQILVMETSEEQTKFLAKNGVIPEESKGSFKYITARSAFVEFGASVIAGGQRIVDDYWESLAKKQNLSSHQRVFKLSTNLISKISLLRPSFQNNRISNANEISANTNNTCTISTSKFESQYPIVTEQPSAEIREAYIENFAKGEHISAIVPGQSISGTLELSAQFRVPRYHSKNSFQQALQMKAMDIPIGRHEELLAQYESQAPDGSASISLPNHIPSVNPSNKPIKRMLSSILDINVSSSKNKKSEENEMIKPMNKGQHKNNTSLNINGWKFESLPLKSAENSGKQQYYRGLPLYEKNTLLERLKQLTPNEIKELEHLHDAVFVNTGLQNVRKVRTKKWKKYWQYKAGIPIGLKRSQLDEFKNKYLKDVLAQTSVTTNFNEITNTDETITTKRVPNPNFLGNCNIKDFKPPYIYSHVNKVPQNVAGDKTAVKLDTEVKNTNANPVVATDPVAAKPDNLANFSNEVAMNN
notes: Swp82, subunit of the S. cerevisiae Swi/Snf complex; endogenous protein; For cryo-EM the complex was cross-linked with 1 mM BS3; source: endogenous, S. cerevisiae; purified as part of the Swi/Snf complex through Snf6-3Flag (ANTI-FLAG M2 resin, Superose 6)
B2: Swi3 (natural protein, S. cerevisiae, UniProt P32591 1-825, looked up)
chain: MENTLGEGSTVNASVDVDQHGNDNNSDSNANAAVAGVANTDTAGEESQQQDESLKDEATVPNTRDAESEAITVTAKQQPTMQANKLDSQETPSTEESRAQNVFGQDNEDSDNLFGETESSVSNNEANTPSIPTNPVDNENNKPAIKEDSTIQDSNGDVKNMEDVKIQKEEEPENNTVIEGVKEESQPDENTKEMDEVEEDDEDDDQPMISPDNSIFGDTKSESKQLGNTSSVANTPSEIPDAHKAEQEDIIEKTESVDKKVDSGEERNEQEREIMNDHSKSANPKKTTITRVEPETFEIPQAHEIVIPSYSKWFNLEKIHSIEVQSLPEFFTNRIPSKTPEVYMRYRNFMVNSYRLNPNEYFSVTTARRNVSGDAAALFRLHKFLTKWGLINYQVDSKLLPKNIEPPLTSQYSTRHDAPRGLFPFESYKPSVQLPDMAKLKKMMNTSDSESTLYKYLKESKRKYDEITHPPSTTDDENGDKNDNGGKMNNEVSTSTSMTGDANLLEEGETSRPLKKVKILEQIDENWSKEDLQKLLKGIQEFGADWYKVAKNVGNKSPEQCILRFLQLPIEDKFLYGDGNGKGDNDNGLGPLKYAPHLPFSKSENPVLSTIAFLVGLVNPKTVQSMTQRAIQSAESIKSQKEEISDQKPIEHIKEGSEIAISSLGYRSHIFATNEERQMNFLTNELIRLQMEKLDAKLNHLKKLEKFMELERKTLERQQENLLIQRLNFNQNSSKIVNVLSKCLNLISDSNINNSSVAEKEEIRSQIDHFKSMLSKPETLSIGKNPFNKPNIETGENHNGQSISNENDVKPISIEAPQFYRYWSA
notes: Swi3, subunit of the S. cerevisiae Swi/Snf complex; endogenous protein; two copies (chains A and B) in the model; also called Swi3A; Swi3B; source: endogenous, S. cerevisiae; purified as part of the Swi/Snf complex through Snf6-3Flag (ANTI-FLAG M2 resin, Superose 6)

Legend:
Test in all cases: cryo-EM structure; endogenous Swi/Snf complex purified as a whole through Snf6-3Flag, nucleosome-free, cross-linked with 1 mM BS3, 20 mM HEPES pH 7.4, 350 mM NaCl; 4.1 Å average, 2.9 Å for the base module
Snf2 = molecular target: T2, Snf2 (S. cerevisiae, UniProt P22082 1-1703); details: both partners purified
T2 construct: Snf2, ATPase-containing subunit of the S. cerevisiae Swi/Snf complex; endogenous protein; Only the preHSA domain and the HSA helix are seen in the map; the ATPase domain is absent from the structure; For cryo-EM the complex was cross-linked with 1 mM BS3; source: endogenous, S. cerevisiae; purified as part of the Swi/Snf complex through Snf6-3Flag (ANTI-FLAG M2 resin, Superose 6)
T2 sequence (P22082 whole entry, the tested form may be a part): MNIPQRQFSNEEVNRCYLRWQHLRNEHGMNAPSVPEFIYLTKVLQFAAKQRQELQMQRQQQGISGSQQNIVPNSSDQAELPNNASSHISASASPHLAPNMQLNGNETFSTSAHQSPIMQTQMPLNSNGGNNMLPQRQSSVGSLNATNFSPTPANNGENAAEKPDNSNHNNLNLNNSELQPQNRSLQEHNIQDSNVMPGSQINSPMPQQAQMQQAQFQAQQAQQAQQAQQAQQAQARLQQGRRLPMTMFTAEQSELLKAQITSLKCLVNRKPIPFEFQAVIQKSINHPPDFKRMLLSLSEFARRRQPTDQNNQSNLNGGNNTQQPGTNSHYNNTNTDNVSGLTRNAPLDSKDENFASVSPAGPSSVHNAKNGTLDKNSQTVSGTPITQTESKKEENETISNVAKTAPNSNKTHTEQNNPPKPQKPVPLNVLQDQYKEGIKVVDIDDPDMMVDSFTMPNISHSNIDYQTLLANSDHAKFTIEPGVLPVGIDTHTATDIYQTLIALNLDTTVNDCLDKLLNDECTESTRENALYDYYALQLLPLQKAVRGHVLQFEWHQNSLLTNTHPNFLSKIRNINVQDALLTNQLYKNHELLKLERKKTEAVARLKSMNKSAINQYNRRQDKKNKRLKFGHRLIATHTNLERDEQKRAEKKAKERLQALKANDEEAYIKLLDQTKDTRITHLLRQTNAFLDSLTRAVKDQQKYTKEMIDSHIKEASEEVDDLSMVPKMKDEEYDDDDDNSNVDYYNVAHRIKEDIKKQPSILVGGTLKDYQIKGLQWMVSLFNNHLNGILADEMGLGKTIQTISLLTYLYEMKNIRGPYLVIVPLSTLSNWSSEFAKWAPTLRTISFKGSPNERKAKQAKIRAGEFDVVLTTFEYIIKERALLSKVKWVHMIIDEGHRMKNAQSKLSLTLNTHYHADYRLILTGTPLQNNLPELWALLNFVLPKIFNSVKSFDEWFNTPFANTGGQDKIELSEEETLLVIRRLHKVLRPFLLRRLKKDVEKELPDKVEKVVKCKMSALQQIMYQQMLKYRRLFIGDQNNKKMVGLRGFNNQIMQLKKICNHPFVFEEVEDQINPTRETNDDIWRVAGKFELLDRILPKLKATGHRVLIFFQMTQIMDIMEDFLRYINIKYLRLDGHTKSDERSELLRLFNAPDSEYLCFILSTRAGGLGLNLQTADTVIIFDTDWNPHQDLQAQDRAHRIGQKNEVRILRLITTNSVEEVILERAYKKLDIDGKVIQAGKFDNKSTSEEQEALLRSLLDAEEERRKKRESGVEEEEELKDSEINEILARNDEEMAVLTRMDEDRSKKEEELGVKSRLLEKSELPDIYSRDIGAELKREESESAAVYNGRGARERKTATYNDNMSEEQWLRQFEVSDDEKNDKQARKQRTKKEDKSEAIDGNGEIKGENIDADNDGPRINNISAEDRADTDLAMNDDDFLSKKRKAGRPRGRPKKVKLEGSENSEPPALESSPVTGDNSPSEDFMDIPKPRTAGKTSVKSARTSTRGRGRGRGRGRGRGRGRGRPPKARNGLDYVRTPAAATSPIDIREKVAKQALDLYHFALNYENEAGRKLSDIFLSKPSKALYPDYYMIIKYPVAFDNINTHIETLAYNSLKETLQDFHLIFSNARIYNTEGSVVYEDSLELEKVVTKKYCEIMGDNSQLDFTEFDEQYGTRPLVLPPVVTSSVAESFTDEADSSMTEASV

Swi3 = molecular target: B2; details: both partners purified
Snf5 = molecular target: T3, Snf5 (S. cerevisiae, UniProt P18480 1-905); details: both partners purified
T3 construct: Snf5, subunit of the S. cerevisiae Swi/Snf complex; endogenous protein; For cryo-EM the complex was cross-linked with 1 mM BS3; source: endogenous, S. cerevisiae; purified as part of the Swi/Snf complex through Snf6-3Flag (ANTI-FLAG M2 resin, Superose 6)
T3 sequence (P18480 whole entry): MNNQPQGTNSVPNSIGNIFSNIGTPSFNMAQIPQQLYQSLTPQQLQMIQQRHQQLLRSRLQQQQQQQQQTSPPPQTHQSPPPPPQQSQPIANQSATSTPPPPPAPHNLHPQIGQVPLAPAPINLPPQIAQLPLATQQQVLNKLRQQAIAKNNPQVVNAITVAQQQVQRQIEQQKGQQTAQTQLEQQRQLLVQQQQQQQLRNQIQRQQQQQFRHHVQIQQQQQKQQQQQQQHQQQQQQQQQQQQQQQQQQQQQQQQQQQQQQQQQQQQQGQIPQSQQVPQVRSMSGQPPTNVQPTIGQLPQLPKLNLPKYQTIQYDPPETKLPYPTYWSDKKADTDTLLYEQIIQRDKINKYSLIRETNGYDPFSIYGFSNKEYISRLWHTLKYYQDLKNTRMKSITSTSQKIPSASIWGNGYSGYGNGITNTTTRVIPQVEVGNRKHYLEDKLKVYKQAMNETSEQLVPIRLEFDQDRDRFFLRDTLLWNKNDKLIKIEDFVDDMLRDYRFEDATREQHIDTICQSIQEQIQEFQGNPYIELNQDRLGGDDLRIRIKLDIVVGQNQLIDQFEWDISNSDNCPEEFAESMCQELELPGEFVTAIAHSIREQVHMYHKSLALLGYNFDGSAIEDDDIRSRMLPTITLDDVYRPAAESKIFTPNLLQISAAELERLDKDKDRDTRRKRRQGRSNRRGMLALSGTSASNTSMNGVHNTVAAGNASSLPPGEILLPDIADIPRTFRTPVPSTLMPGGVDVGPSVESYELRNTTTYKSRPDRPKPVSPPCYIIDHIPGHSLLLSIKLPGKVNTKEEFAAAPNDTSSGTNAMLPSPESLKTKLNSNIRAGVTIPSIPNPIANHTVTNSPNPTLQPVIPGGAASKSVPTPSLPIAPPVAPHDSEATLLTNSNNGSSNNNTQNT

Swi1 = molecular target: T1, Swi1; details: both partners purified
[1] = molecular target: the molecule itself

Row | binding result (Snf2) | binding result (Swi3) | binding result (Snf5) | binding result (Swi1) | Binder | stoichiometry N [1]
1 | binds | binds | binds |  | B1 | 
2 | binds |  | binds | binds | B2 | 2
